For the series, the system named is Escherichia coli TOP10. Put plainly: shrunken log2 fold change of peptide-encoding DNA abundance (4.5 h post-induction vs induction); higher = less antimicrobial activity (less host growth inhibition). The note with it: time post-induction: 4.5 h; library: site-saturation at positions 5, 18, 19, 20.

Data on 125 sequences can be found in the supplement of paper PMC9112550, “Optimization of the antimicrobial peptide Bac7 by deep mutational scanning” (BMC Biology, 2022).
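Further: peptides expressed intracellularly from a pBAD plasmid library in pooled LB shake-flask culture, induced with 0.3% L-arabinose, DNA abundance read by NGS, three biological replicates, DESeq2 with apeglm shrinkage.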

Take RRIRRRPPRLPRPRPRPEAFPRP: the “shrunken log2 fold change” value came out at 0.842.

For the sequence RRIRERPPRLPRPRPRPLLLPRP, the “shrunken log2 fold change” value was -0.305.

As for RRIRGRPPRLPRPRPRPMGCPRP, the “shrunken log2 fold change” value was 0.0963. Under RRIRIRPPRLPRPRPRPGAEPRP stands 0.0273; under RRIRCRPPRLPRPRPRPHNKPRP, -0.75; under RRIRLRPPRLPRPRPRPAYAPRP, -0.0747.

RRIRHRPPRLPRPRPRPYTLPRP: the “shrunken log2 fold change” value is -0.611. For RRIRNRPPRLPRPRPRPVCEPRP, the “shrunken log2 fold change” value was determined as 1.34.

Consider RRIRRRPPRLPRPRPRPASHPRP, for which the “shrunken log2 fold change” value is 0.4. RRIRVRPPRLPRPRPRPAYWPRP: the “shrunken log2 fold change” value is -0.000323. On to RRIRERPPRLPRPRPRPIAHPRP, for which the “shrunken log2 fold change” value is -0.171. Next, RRIRERPPRLPRPRPRPMFIPRP: -0.256. Take RRIRFRPPRLPRPRPRPACIPRP: the “shrunken log2 fold change” value is -0.397. As to RRIRIRPPRLPRPRPRPCPDPRP, the “shrunken log2 fold change” value is -0.127.

With RRIRCRPPRLPRPRPRPWFIPRP, the “shrunken log2 fold change” value was -0.51. Next, RRIRARPPRLPRPRPRPTMEPRP: 0.564. Consider RRIRKRPPRLPRPRPRPRILPRP, for which the “shrunken log2 fold change” value is 0.0416. Next, RRIRLRPPRLPRPRPRPLFTPRP: -0.232; RRIRQRPPRLPRPRPRPRIDPRP: 0.0868; RRIRNRPPRLPRPRPRPDRTPRP: -0.161.

With RRIRWRPPRLPRPRPRPGHCPRP, the “shrunken log2 fold change” value was -0.101. For RRIRDRPPRLPRPRPRPIAEPRP, the “shrunken log2 fold change” value stood at 0.195. Next, RRIRKRPPRLPRPRPRPEDLPRP: 1.8; RRIRIRPPRLPRPRPRPGWYPRP: -0.221; RRIRHRPPRLPRPRPRPFFKPRP: -0.149. Under RRIRNRPPRLPRPRPRPIKFPRP stands -0.165; under RRIRIRPPRLPRPRPRPGTQPRP, -0.0235. Take RRIRVRPPRLPRPRPRPQLTPRP: the “shrunken log2 fold change” value is -0.0141. Under RRIRFRPPRLPRPRPRPTCHPRP stands -0.231; under RRIRVRPPRLPRPRPRPLWAPRP, 0.081. Next, RRIRYRPPRLPRPRPRPFLEPRP: -0.775. Under RRIRWRPPRLPRPRPRPDDPPRP stands -0.0101.

As to RRIRNRPPRLPRPRPRPEWRPRP, the “shrunken log2 fold change” value was determined as 0.404. As to RRIRPRPPRLPRPRPRPPVPPRP, the “shrunken log2 fold change” value was determined as 0.564. Take RRIRDRPPRLPRPRPRPCVDPRP: the “shrunken log2 fold change” value came out at 0.0635. Under RRIRERPPRLPRPRPRPGNVPRP stands -0.197; under RRIRMRPPRLPRPRPRPTSRPRP, 0.385; under RRIRLRPPRLPRPRPRPQEFPRP, 0.00998. Next, RRIRSRPPRLPRPRPRPAECPRP: 0.0306. Under RRIRMRPPRLPRPRPRPECWPRP stands 2.25; under RRIRCRPPRLPRPRPRPPWAPRP, 0.317. As for RRIRCRPPRLPRPRPRPMPPPRP, the “shrunken log2 fold change” value is 0.914. Under RRIRVRPPRLPRPRPRPKRCPRP stands -0.0118. Next, RRIRWRPPRLPRPRPRPKWTPRP: -0.119; RRIRVRPPRLPRPRPRPGVPPRP: 0.0752. As to RRIRERPPRLPRPRPRPWVIPRP, the “shrunken log2 fold change” value worked out at 0.0392. Under RRIRCRPPRLPRPRPRPYVMPRP stands -0.633; under RRIRKRPPRLPRPRPRPYAKPRP, -0.0729; under RRIRRRPPRLPRPRPRPFRVPRP, 0.12. Under RRIRPRPPRLPRPRPRPTINPRP stands -0.51; under RRIRWRPPRLPRPRPRPPFYPRP, -0.00501. Next, RRIRLRPPRLPRPRPRPMQKPRP: -0.0247; RRIRIRPPRLPRPRPRPHMLPRP: -0.943; RRIRVRPPRLPRPRPRPYGSPRP: -0.409. As for RRIRSRPPRLPRPRPRPHYMPRP, the “shrunken log2 fold change” value was -0.273. Under RRIRFRPPRLPRPRPRPCYCPRP stands -0.064. Under RRIRRRPPRLPRPRPRPNALPRP stands 0.261; under RRIRQRPPRLPRPRPRPVKLPRP, -0.0467. Under RRIRKRPPRLPRPRPRPVTYPRP stands -0.0821; under RRIRARPPRLPRPRPRPKRNPRP, 0.487; under RRIRNRPPRLPRPRPRPKPWPRP, 0.217. For RRIRVRPPRLPRPRPRPLELPRP, the “shrunken log2 fold change” value was -0.103. Under RRIRGRPPRLPRPRPRPIKIPRP stands 0.302; under RRIRSRPPRLPRPRPRPAAVPRP, 0.418; under RRIRGRPPRLPRPRPRPYRNPRP, -0.39. Next, RRIRHRPPRLPRPRPRPEKEPRP: -0.00451; RRIRLRPPRLPRPRPRPQDSPRP: -0.276. Next, RRIRKRPPRLPRPRPRPEIVPRP: 1.08; RRIRKRPPRLPRPRPRPLMWPRP: 0.284. Consider RRIRTRPPRLPRPRPRPLCHPRP, for which the “shrunken log2 fold change” value is -0.175. In the case of RRIRYRPPRLPRPRPRPNIEPRP, the “shrunken log2 fold change” value was -0.801. Under RRIRERPPRLPRPRPRPGWWPRP stands -0.0125; under RRIRDRPPRLPRPRPRPAWNPRP, 0.428.

With RRIRQRPPRLPRPRPRPTFHPRP, the “shrunken log2 fold change” value came out at 0.199. RRIRARPPRLPRPRPRPHWDPRP: the “shrunken log2 fold change” value turned out to be 0.116.

As for RRIRFRPPRLPRPRPRPFIEPRP, the “shrunken log2 fold change” value was -0.894. Under RRIRWRPPRLPRPRPRPKEDPRP stands 0.0809; under RRIRVRPPRLPRPRPRPTFAPRP, 0.294. Next, RRIRSRPPRLPRPRPRPEDHPRP: 0.146; RRIRFRPPRLPRPRPRPITAPRP: -0.286; RRIRYRPPRLPRPRPRPFRMPRP: -0.0929. Under RRIRARPPRLPRPRPRPVSIPRP stands 0.119. On to RRIRQRPPRLPRPRPRPDQEPRP, for which the “shrunken log2 fold change” value was found to be 0.0119. Next, RRIRLRPPRLPRPRPRPAQMPRP: 0.122; RRIRARPPRLPRPRPRPAYSPRP: -0.0547.

With RRIRARPPRLPRPRPRPCTCPRP, the “shrunken log2 fold change” value is -0.199.

RRIRMRPPRLPRPRPRPAHKPRP: the “shrunken log2 fold change” value came to 0.534.

As to RRIRSRPPRLPRPRPRPTYQPRP, the “shrunken log2 fold change” value was -0.0198. Under RRIRGRPPRLPRPRPRPVWRPRP stands 1.21; under RRIRHRPPRLPRPRPRPHTWPRP, -0.301; under RRIRQRPPRLPRPRPRPETKPRP, 0.0652. On to RRIRKRPPRLPRPRPRPTSMPRP, for which the “shrunken log2 fold change” value was 0.508. Take RRIRMRPPRLPRPRPRPVHMPRP: the “shrunken log2 fold change” value is -0.318. Take RRIRLRPPRLPRPRPRPVATPRP: the “shrunken log2 fold change” value came to 0.282. Next, RRIRYRPPRLPRPRPRPQRHPRP: -0.48. Under RRIRERPPRLPRPRPRPHMPPRP stands -0.197. Under RRIRFRPPRLPRPRPRPQWAPRP stands 0.136; under RRIRARPPRLPRPRPRPHHVPRP, -0.0499.

For the sequence RRIRGRPPRLPRPRPRPMPAPRP, the “shrunken log2 fold change” value worked out at 1.29. Under RRIRKRPPRLPRPRPRPVDRPRP stands 0.248.

For the sequence RRIRLRPPRLPRPRPRPEAGPRP, the “shrunken log2 fold change” value was 0.375.

Turning to RRIRVRPPRLPRPRPRPKMAPRP, the “shrunken log2 fold change” value was -0.222. Under RRIRMRPPRLPRPRPRPFWGPRP stands -0.149. Under RRIRLRPPRLPRPRPRPYMKPRP stands -0.804. In the case of RRIRSRPPRLPRPRPRPYPGPRP, the “shrunken log2 fold change” value was -0.199. Under RRIRIRPPRLPRPRPRPTIKPRP stands -0.611. Turning to RRIRIRPPRLPRPRPRPDIGPRP, the “shrunken log2 fold change” value is -0.251. Next, RRIRIRPPRLPRPRPRPHHCPRP: -0.00699.

On to RRIRYRPPRLPRPRPRPGCGPRP, for which the “shrunken log2 fold change” value is -0.0402.

Consider RRIRYRPPRLPRPRPRPWRQPRP, for which the “shrunken log2 fold change” value was -0.00152.

On to RRIRERPPRLPRPRPRPVRIPRP, for which the “shrunken log2 fold change” value is -0.0343. Next, RRIRCRPPRLPRPRPRPDRFPRP: 0.0616; RRIRGRPPRLPRPRPRPQGVPRP: -0.0465; RRIRPRPPRLPRPRPRPSVPPRP: -0.166. Under RRIRQRPPRLPRPRPRPYELPRP stands -0.695. In the case of RRIRSRPPRLPRPRPRPKYLPRP, the “shrunken log2 fold change” value was -0.756. Take RRIRWRPPRLPRPRPRPLQKPRP: the “shrunken log2 fold change” value is 1.73. Next, RRIRIRPPRLPRPRPRPRDNPRP: -0.348; RRIRPRPPRLPRPRPRPQVLPRP: -0.208. Next, RRIRFRPPRLPRPRPRPHHSPRP: -0.883. Under RRIRMRPPRLPRPRPRPLNCPRP stands -0.158.

For RRIRTRPPRLPRPRPRPVCMPRP, the “shrunken log2 fold change” value was -0.17. Next, RRIRERPPRLPRPRPRPQSDPRP: -0.134.

RRIRARPPRLPRPRPRPYFRPRP: the “shrunken log2 fold change” value was -0.435. Next, RRIRPRPPRLPRPRPRPEGLPRP: 0.491.
